Target: T1, natural Fel d 1 (Felis catus, UniProt P30438;P30440)
T1 construct: Fel d 1 Chain 1, cat, of the natural Fel d 1 heterodimer; Fel d 1 Chain 2, cat, of the natural Fel d 1 heterodimer; also called nFel d 1; source: bought: Indoor Biotech, Catalog #LTN-FD-1
Assay: SPR; Biacore T200; REGN1909 (94-163 RU) captured on a goat anti-human Fcγ coupled surface; nFel d 1 or rFel d 1.mmh injected in 2-fold dilutions; 10 mM HEPES, 150 mM NaCl, 3 mM MgCl2, 3 mM CaCl2, 0.05% P20, pH 7.4; 1:1 binding model with mass transport limitation
Settings: both partners purified

binding result: binds
B1: REGN1909 (antibody, V domains shown)
VH: EVQLVESGGGLVQPGGSLRLSCAASGFTFSSYAMSWVRQAPGKGLEWVSAISGRGYNADYADSVKGRFTISRDNSKNTLYLQMNSLRAEDTAVYYCAKLEYFDYWGQGTLVTVSS
VL: DIQMTQSPSTLSASVGDRVTITCRASQSISSWLAWYQQKPGKAPKLLIYKASSLESGVPSRFSGSGSGTDFTLTISSLRPEDFATYYCQQYNSYPLTFGGGTKVEIK

Reference: publication PMC5897525 (Nature Communications, 2018)
